{
  "source": "paper doi:10.1101/2019.12.15.876185",
  "tested_on": "CTCF (human)",
  "experiment": "EMSA",
  "data": [
    {"substance": "Cacna1b e37a DNA probe (139 bp)", "values": [
      {"measurement": "Kd", "result": 0.0461, "unit": "ng"}
    ]}
  ]
}
